Target: T1, transformation/transcription domain-associated protein (TRRAP) (human (endogenous in K562), UniProt Q9Y4A5 1-3859)
T1 construct: transformation/transcription domain-associated protein (TRRAP), human; also called TRRAP module; source: endogenous, K562 extract; co-purified with tagged EP400 constructs
Experiment: cryo-EM structure; TRRAP-EP400Cter purified by the tagged EP400 truncation 2188-3159, glutaraldehyde cross-linked; 3.4 Å
Conditions: both partners purified

T1 sequence (Q9Y4A5 whole entry, the tested form may be a part): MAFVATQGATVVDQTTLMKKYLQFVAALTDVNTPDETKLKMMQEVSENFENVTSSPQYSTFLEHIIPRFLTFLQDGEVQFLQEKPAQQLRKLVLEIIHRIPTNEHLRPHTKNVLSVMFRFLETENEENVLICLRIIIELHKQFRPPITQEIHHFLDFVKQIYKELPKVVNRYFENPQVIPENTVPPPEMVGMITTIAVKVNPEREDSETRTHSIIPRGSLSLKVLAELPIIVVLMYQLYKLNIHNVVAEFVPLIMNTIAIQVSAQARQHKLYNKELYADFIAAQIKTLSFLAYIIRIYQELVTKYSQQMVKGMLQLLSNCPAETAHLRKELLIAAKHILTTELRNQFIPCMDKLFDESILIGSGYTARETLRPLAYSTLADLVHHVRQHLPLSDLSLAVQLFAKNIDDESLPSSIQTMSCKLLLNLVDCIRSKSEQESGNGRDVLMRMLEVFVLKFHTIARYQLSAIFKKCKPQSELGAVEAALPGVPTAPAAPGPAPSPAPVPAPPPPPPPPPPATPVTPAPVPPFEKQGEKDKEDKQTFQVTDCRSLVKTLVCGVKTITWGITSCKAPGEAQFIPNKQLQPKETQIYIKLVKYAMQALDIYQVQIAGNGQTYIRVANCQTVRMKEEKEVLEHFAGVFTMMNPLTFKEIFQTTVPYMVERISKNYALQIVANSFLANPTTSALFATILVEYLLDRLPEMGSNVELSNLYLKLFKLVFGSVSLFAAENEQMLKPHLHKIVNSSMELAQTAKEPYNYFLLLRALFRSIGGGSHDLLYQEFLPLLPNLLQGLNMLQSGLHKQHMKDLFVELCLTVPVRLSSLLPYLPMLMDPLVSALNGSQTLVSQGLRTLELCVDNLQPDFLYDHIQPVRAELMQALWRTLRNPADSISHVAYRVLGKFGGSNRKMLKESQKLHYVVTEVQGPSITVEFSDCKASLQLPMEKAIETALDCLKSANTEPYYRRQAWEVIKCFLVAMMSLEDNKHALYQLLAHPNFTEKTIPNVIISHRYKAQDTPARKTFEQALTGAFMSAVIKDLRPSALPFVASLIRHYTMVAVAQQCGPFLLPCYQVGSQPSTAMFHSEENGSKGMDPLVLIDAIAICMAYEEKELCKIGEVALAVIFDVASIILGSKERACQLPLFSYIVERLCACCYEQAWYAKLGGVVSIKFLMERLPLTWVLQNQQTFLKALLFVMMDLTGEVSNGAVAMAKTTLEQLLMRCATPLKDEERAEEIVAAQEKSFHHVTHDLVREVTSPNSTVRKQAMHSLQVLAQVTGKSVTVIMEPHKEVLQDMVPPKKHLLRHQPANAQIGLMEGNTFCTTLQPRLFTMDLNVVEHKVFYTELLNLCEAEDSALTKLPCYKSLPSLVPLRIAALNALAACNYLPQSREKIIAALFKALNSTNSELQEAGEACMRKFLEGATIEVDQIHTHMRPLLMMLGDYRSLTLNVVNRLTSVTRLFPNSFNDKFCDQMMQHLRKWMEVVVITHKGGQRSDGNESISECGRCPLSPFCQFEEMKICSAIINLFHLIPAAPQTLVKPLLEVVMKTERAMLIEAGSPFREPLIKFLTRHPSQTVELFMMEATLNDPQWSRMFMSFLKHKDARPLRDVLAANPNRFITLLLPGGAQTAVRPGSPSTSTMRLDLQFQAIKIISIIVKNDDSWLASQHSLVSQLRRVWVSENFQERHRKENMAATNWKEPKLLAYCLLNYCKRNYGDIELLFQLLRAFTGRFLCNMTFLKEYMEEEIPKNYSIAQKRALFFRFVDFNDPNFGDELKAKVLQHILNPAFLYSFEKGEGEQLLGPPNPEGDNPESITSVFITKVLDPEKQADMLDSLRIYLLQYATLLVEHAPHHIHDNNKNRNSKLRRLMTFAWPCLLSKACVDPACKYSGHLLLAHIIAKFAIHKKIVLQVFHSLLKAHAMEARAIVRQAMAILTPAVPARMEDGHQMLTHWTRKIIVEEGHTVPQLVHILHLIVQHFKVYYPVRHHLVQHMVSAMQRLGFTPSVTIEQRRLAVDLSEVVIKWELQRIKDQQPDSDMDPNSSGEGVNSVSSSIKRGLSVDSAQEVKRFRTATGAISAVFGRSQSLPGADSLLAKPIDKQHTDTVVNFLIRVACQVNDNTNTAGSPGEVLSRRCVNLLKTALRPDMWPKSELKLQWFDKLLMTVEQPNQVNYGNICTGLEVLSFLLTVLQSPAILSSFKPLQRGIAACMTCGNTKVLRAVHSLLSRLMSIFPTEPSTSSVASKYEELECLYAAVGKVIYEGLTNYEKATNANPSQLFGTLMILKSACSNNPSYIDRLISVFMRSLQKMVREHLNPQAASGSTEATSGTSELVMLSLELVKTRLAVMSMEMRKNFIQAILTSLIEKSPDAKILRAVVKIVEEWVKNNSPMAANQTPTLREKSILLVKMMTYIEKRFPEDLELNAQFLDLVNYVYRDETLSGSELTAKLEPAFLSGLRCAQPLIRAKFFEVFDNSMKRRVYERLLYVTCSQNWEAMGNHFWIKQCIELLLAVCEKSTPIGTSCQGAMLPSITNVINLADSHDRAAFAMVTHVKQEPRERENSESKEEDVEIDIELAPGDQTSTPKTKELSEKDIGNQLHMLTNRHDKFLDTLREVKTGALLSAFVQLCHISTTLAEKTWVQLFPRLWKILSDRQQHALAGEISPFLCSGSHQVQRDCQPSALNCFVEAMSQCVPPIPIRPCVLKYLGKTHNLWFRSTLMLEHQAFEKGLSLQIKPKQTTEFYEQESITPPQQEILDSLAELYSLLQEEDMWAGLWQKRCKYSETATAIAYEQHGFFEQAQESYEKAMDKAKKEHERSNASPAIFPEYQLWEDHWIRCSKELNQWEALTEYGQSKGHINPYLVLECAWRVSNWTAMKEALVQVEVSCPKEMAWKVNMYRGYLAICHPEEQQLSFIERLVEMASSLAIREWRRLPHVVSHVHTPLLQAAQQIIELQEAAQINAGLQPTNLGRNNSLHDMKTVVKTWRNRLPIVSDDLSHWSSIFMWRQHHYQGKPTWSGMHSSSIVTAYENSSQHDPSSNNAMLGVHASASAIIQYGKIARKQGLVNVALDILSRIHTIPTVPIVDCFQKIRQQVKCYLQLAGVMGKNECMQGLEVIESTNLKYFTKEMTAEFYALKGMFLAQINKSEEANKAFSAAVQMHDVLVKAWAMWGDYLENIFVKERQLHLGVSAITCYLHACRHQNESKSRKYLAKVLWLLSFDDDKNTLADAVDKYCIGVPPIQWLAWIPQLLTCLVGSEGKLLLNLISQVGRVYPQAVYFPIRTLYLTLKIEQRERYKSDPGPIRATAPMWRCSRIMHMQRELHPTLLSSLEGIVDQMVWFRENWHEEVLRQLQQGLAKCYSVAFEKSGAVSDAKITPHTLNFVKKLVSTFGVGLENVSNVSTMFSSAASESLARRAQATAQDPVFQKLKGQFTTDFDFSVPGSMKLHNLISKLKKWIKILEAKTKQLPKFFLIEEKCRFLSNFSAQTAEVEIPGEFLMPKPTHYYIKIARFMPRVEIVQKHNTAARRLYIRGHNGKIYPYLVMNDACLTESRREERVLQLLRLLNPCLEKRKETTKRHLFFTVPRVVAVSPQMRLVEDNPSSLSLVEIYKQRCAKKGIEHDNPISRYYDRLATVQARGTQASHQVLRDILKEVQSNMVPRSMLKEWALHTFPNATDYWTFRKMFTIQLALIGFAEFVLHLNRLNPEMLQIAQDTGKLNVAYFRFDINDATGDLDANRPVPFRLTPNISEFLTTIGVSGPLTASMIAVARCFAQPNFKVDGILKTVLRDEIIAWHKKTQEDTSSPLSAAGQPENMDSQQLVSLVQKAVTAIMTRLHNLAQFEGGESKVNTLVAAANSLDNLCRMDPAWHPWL

B1: tagged truncation of EP400 containing just the C terminus after the ATPase domain (amino acid 2188 to 3159) (domain or fragment, human, UniProt Q96L91 2188-3159, looked up)
chain: AVMTAVRAWEFWNLKTLQEREARLRLEQEEAELLTYTREDAYSMEYVYEDVDGQTEVMPLWTPPTPPQDDSDIYLDSVMCLMYEATPIPEAKLPPVYVRKERKRHKTDPSAAGRKKKQRHGEAVVPPRSLFDRATPGLLKIRREGKEQKKNILLKQQVPFAKPLPTFAKPTAEPGQDNPEWLISEDWALLQAVKQLLELPLNLTIVSPAHTPNWDLVSDVVNSCSRIYRSSKQCRNRYENVIIPREEGKSKNNRPLRTSQIYAQDENATHTQLYTSHFDLMKMTAGKRSPPIKPLLGMNPFQKNPKHASVLAESGINYDKPLPPIQVASLRAERIAKEKKALADQQKAQQPAVAQPPPPQPQPPPPPQQPPPPLPQPQAAGSQPPAGPPAVQPQPQPQPQTQPQPVQAPAKAQPAITTGGSAAVLAGTIKTSVTGTSMPTGAVSGNVIVNTIAGVPAATFQSINKRLASPVAPGALTTPGGSAPAQVVHTQPPPRAVGSPATATPDLVSMATTQGVRAVTSVTASAVVTTNLTPVQTPARSLVPQVSQATGVQLPGKTITPAHFQLLRQQQQQQQQQQQQQQQQQQQQQQQQQQQQQTTTTSQVQVPQIQGQAQSPAQIKAVGKLTPEHLIKMQKQKLQMPPQPPPPQAQSAPPQPTAQVQVQTSQPPQQQSPQLTTVTAPRPGALLTGTTVANLQVARLTRVPTSQLQAQGQMQTQAPQPAQVALAKPPVVSVPAAVVSSPGVTTLPMNVAGISVAIGQPQKAAGQTVVAQPVHMQQLLKLKQQAVQQQKAIQPQAAQGPAAVQQKITAQQITTPGAQQKVAYAAQPALKTQFLTTPISQAQKLAGAQQVQTQIQVAKLPQVVQQQTPVASIQQVASASQQASPQTVALTQATAAGQQVQMIPAVTATAQVVQQKLIQQQVVTTASAPLQTPGAPNPAQVPASSDSPSQQPKLQMRVPAVRLKTPTKPPCQ
notes: 137 residues (SANT and HD domains) are resolved; also called EP400Cter; C-terminal segment of EP400; source: new cell line expressing the tagged truncation
**Q.** Does B1 bind?
**A.** binds
